B1: EHMT1 (parent)
chain: SARQGELQKVLLMLVDGIDPNFKM
B2: FBXO34 (parent)
chain: ASSVESTLPVLEASSWKKQVSHDF

Variants of: B1
Test: protein stability index of a GFP-peptide fusion (GPS, HEK-293T) (PSI 1-6); higher = more stable
Conditions: c terminus: a fixed tail appended
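Further: lentivirally expressed fusions sorted by FACS into six bins by GFP to DsRed ratio, PSI derived from sequencing read proportions per bin multiplied by bin number.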

Protein stability index: each site, then its substitutions
A2: D 1.61; F 2.81; M 2.95; Q 1.78; S 3.14; G 1.02; R 1.28; K 1.22; N 3.47; L 3.91; P 2.31; C 3.59; H 2.27; E 1.86; I 2.21; V 1.75; T 3.06
S1: Y 1.45; E 1.66; H 2.42; G 2.05; P 1.83; C 2.34; R 2.2; T 2.12; D 1.18; N 2.67; W 2.93; M 1.42; L 1.03; K 2.31; Q 2.03; F 1.97; I 1.39
L7: N 1.36; G 1.59; D 2.19; T 1.62; H 3.17; F 1.04; C 1.03; M 1.27; Y 1.5; I 2.81; P 1.84; K 1.67; V 1.03; Q 1.7; R 2.12; S 1.43; A 1.91; E 2.35
G5: I 3.95; W 2.55; R 3.6; F 1.98; C 1.79; P 3.53; N 2.26; D 1.94; Q 1.93; H 1.97; Y 1.92; M 3.61; A 2.65; T 3.12; S 1.64; E 1.59
E6: W 1.89; T 2.4; N 2.15; Y 3.65; Q 1.87; L 1.99; M 2.91; D 1.69; H 2.02; I 3.51; P 2.45; S 2.6; F 2.34
R3: Q 2.25; F 1.86; Y 1.88; P 2.83; A 1.96; K 2.8; E 2.2; L 2.39; G 1.86; I 2.15; N 2.38; C 1.83; T 1.76; H 1.5; S 1.75; W 3.4; D 1.78
Q4: P 2.15; A 2.27; E 1.94; K 1.35; M 3.05; L 3.17; D 1.61; I 2.56; Y 1.94; G 1.83; T 2.01; F 3.15; C 2.29; S 1.53; N 1.6
Q8: H 1.93; L 3.28; F 3.86; D 1.43; N 2.23; I 2.01; K 1.57; G 2.25; E 2.73

Variants of: B2
Test: as above
Conditions: c terminus: a fixed tail appended

Protein stability index of substitutions, site by site:
A13: M 2.85; H 2.37; V 3; C 2.36; L 2.61; F 2.38; S 3.36; R 1.59; D 3.19; P 3.66; T 2.18; N 3.21; I 2.49; Q 2.37; K 2.27
K18: R 3.15; V 2.53; C 2.11; E 1.38; P 2.99; Y 2.44; D 1.88; M 1.5; F 1.8; Q 2.69; I 2.37; S 3.72; L 2.83; H 2.39; N 2.94; W 2.58; T 2.95; G 3.49; A 2.21
H22: F 2.73; I 2.84; S 2.79; K 3.31; G 4.47; N 2.54; C 2.94; D 3.65; P 4.1; Y 3.01; E 2.69; R 2.09; L 3.36; Q 2.58; W 2.18; M 2.23; T 3.19; V 2.83
Q19: E 4.58; W 2.59; L 2.57; H 4.77; P 4.53; F 2.82; D 4.28; K 1.89; A 2.61; Y 2.01; R 1.95; I 2.45; C 2.92; G 4.14; S 4.08; M 2.27; T 3.3; N 3.97
K17: P 3.95; A 1.83; N 3.75; T 1.61; L 2.85; G 2.98; Q 1.52; F 2.85; W 2.02; M 2.58; Y 2.38; I 1.59; D 4.16; H 3.17; S 2.38; C 3.17
S15: G 3.65; D 4.01; N 2.88; P 3.61; M 3.5; R 3.81; H 3.24; I 4.11; V 2.84; A 3.05; L 3.4; F 2.75; Q 3.44; Y 2.99; T 3.07; K 3.92; W 2.38
W16: L 3.94; D 5.44; V 4.99; S 4.2; G 4.66; R 4.69; F 3.67; H 4.31; K 4.18; N 4.99; T 4.81; E 5.07; P 4.61; I 3.71; A 4.01; Q 4.71; M 5.15; C 4.2; Y 3.75
D23: I 2.07; L 3.27; A 3.54; Q 2.93; Y 2.18; P 2.91; R 3.76; H 3.27; G 3.06; M 2.96; K 3.54; C 2.22; T 3.26; S 3.14; E 1.77; W 2.61; F 3.22
E12: V 2.73; Y 2.22
V20: E 4.85; F 3.72; M 4.34; L 3.55; C 3.44; Q 4.01; T 4.29; I 3.69; Y 3.5; G 4.09; H 4.6; P 4.04; K 4.3; W 2.47; D 4.84; A 3.91; N 4.13; R 4.22
S21: V 3.65; D 4.89; E 2.76; P 3.87; M 3; I 2.64; Q 3.08; F 2.89; W 2.3; K 3.26; A 3.31; T 3.61; H 3.58; L 2.44; R 3.79; C 2.72; N 3.64; G 2.79; Y 2.97
F24: Q 4.25; L 2.31; T 3.77; P 4.26; N 4.25; S 4.33; K 4.79; H 3.98; G 2.98; M 3; C 3.49; R 4.53; A 3.78; W 2.45; V 3.83; I 2.19; Y 3
S14: I 3.74; Y 2.3; N 3.02; T 2.33; L 2.14; F 2.49; D 1.67; H 2.4; P 3.07; R 2.39; E 2.75; Q 2.4; W 1.12; M 1.53; V 2.35; G 2.8; C 2.95

Source: the supplement of paper PMC10567573
